One block for each binder: values may come before it.
Columns and labels:
FcγRIIa H = molecular target: T1, FcγRIIa H (human, UniProt P12318 34-217); test: SPR (Biacore), antibody captured on antigen-peptide chip, FcγR as analyte; binding relative to GpH7-A5/GpH7-B3/GpL16-k0 = 100
T1 construct: extracellular domain; also called FcgRIIa H type; 2aH
T1 sequence (looked up): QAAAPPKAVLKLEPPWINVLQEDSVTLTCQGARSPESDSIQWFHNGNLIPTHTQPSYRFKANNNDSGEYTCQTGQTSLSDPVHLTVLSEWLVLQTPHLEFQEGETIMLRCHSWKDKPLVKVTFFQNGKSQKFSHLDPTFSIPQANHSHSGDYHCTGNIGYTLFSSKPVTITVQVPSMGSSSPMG

FcγRIIb [1] = molecular target: T2, FcγRIIb (human, UniProt P31994 43-217); test: as above
T2 construct: extracellular domain; also called FcgRIIb; 2b
T2 sequence (looked up): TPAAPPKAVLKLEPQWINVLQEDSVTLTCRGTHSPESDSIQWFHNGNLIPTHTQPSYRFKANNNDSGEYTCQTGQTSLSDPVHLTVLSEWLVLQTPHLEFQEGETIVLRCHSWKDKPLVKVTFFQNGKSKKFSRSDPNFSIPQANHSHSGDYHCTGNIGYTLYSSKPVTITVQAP

[2] = molecular target: T3, FcγRIIb extracellular domain with C-terminal His tag (human, UniProt P31994 43-217); test: SPR (Biacore), antibody captured on antigen peptide chip, FcγR as analyte
T3 construct: extracellular domain; Soluble receptor expressed in FreeStyle293 cells, used as analyte in Biacore; also called FcgRIIb; 2b; not shown: His tag at the C terminus
T3 sequence (looked up): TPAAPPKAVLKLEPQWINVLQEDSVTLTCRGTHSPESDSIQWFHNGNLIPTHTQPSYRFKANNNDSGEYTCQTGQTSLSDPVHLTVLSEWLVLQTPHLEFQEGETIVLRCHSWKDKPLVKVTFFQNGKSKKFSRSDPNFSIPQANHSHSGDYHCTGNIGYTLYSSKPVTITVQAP
Description: (§1) Analysis of interaction between objective antibody and the FcγR was carried out using Biacore T100 (GE Healthcare). HBS-EP+ (GE Healthcare) was used as the running buffer, and the measurement temperature was set to 25° C. Chips produced by immobilizing the antigen peptide by the amine coupling method to a Series S Sencor Chip CM5 (GE Healthcare), or alternatively, chips produced by allowing preliminarily biotinylated antigen peptides to interact with and immobilize onto a Series S Sensor Chip SA (certified) (GE Healthcare) were used. Antibodies of interest were captured onto an antigen peptide-immobilized chip, and allowed to interact to each FcγR diluted with running buffer. To regenerate and repeatedly use the chip, the antibodies captured on the chip were washed off by reacting 10 mM glycine-HCl, pH 1.5.
(§2) The FcγR-binding activity of each antibody was assessed primarily using as an indicator the FcγR-binding activity and dissociation constant for FcγR.

[3] = molecular target: T4, FcγRIIIa extracellular domain with C-terminal His tag (human, UniProt P08637 17-208); test: as above
T4 construct: extracellular domain; also called FcgRIIIa; 3a; not shown: His tag at the C terminus
T4 sequence (P08637 17-208): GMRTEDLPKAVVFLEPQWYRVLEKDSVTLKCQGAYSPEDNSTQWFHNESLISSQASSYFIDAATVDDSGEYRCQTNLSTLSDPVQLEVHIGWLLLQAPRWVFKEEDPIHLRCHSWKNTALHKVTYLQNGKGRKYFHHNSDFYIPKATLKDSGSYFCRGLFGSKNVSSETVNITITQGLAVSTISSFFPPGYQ
Description: as §1, §2

[4] = molecular target: T4, FcγRIIIa extracellular domain with …; test: SPR; He/Con_3a divided by He/Con_2b (FcγRIIIa over FcγRIIb)
Description: as §1, §2

FcγRIIb [5] = molecular target: T5, FcγRIIb (human, UniProt P31994 43-217); test: SPR (Biacore), antibody captured, FcγR as analyte; binding as % of GpH7-A5/GpH7-B3/GpL16-k0
T5 construct: extracellular domain; also called FcgRIIb; 2b; not shown: His tag at the C terminus
T5 sequence (looked up): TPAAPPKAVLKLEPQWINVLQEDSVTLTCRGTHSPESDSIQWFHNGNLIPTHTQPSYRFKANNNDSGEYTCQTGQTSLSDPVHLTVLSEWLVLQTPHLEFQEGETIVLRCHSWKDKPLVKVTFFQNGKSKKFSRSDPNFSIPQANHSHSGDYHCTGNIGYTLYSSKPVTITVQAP

FcγRIa = molecular target: T6, FcγRIa (human, UniProt P12314 16-292); test: as above
T6 construct: extracellular domain; also called FcgRI; 1a; not shown: His tag at the C terminus
T6 sequence (P12314 16-292): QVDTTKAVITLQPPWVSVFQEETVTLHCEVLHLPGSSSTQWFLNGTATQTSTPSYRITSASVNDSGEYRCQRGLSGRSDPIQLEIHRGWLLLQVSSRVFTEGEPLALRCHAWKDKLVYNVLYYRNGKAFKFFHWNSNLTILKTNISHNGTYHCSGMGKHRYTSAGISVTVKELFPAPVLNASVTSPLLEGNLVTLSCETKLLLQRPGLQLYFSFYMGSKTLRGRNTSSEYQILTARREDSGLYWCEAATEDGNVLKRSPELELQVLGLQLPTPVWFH

B2: GpH7-A5/GpH7-B3 variant P331_03V/GpL16-k0 (antibody, human IgG1, kappa)
heavy 1: not shown
heavy 2: not shown
light: DIVMTQSPLSLPVTPGEPASISCQASESLVHSNRNTYLHWYLQKPGQSPQLLIYKVSNRFSGVPDRFSGSGSGTDFTLKISRVEAEDVGVYYCSQNTHVPPTFGQGTKVEIERTVAAPSVFIFPPSDEQLKSGTASVVCLLNNFYPREAKVQWKVDNALQSGNSQESVTEQDSKDSTYSLSSTLTLSKADYEKHKVYACEVTHQGLSSPVTKSFNRGEC
notes: Heterodimerized anti-glypican-3 IgG1; P331V (EU) only in the GpH7-B3 chain; also called He Ab
- He/Con_2b [2]: 119 relative binding (GpH7-A5/GpH7-B3/GpL16-k0 = 100)
- He/Con_3a [3]: 73.2 relative binding (GpH7-A5/GpH7-B3/GpL16-k0 = 100)
- He_3a/2b (IIIa/IIb) [4]: 0.62 ratio

B4: GpH7-A5/GpH7-B3 variant I332_04F/GpL16-k0 (antibody, human IgG1, kappa)
heavy 1: not shown
heavy 2: not shown
light: DIVMTQSPLSLPVTPGEPASISCQASESLVHSNRNTYLHWYLQKPGQSPQLLIYKVSNRFSGVPDRFSGSGSGTDFTLKISRVEAEDVGVYYCSQNTHVPPTFGQGTKVEIERTVAAPSVFIFPPSDEQLKSGTASVVCLLNNFYPREAKVQWKVDNALQSGNSQESVTEQDSKDSTYSLSSTLTLSKADYEKHKVYACEVTHQGLSSPVTKSFNRGEC
notes: heterodimerized IgG1; alteration in the GpH7-B3 H chain only; also called He Ab
- He/Con_2b (FcγRIIb [5]): 104 % of control
- He/Con_1a (FcγRIa): 93.6 % of control

B5: GpH7-A5/GpH7-B3 variant L328_09D/GpL16-k0 (antibody, human IgG1, kappa)
heavy 1: not shown
heavy 2: not shown
light: DIVMTQSPLSLPVTPGEPASISCQASESLVHSNRNTYLHWYLQKPGQSPQLLIYKVSNRFSGVPDRFSGSGSGTDFTLKISRVEAEDVGVYYCSQNTHVPPTFGQGTKVEIERTVAAPSVFIFPPSDEQLKSGTASVVCLLNNFYPREAKVQWKVDNALQSGNSQESVTEQDSKDSTYSLSSTLTLSKADYEKHKVYACEVTHQGLSSPVTKSFNRGEC
notes: Heterodimerized anti-glypican-3 IgG1; L328D (EU) only in the GpH7-B3 chain; also called He Ab
- He/Con_2b [2]: 199 relative binding (GpH7-A5/GpH7-B3/GpL16-k0 = 100)
- He/Con_3a [3]: 47.8 relative binding (GpH7-A5/GpH7-B3/GpL16-k0 = 100)
- He_3a/2b (IIIa/IIb) [4]: 0.24 ratio

B6: GpH7-A5/GpH7-B3 variant I332_14T/GpL16-k0 (antibody, human IgG1, kappa)
heavy 1: not shown
heavy 2: not shown
light: DIVMTQSPLSLPVTPGEPASISCQASESLVHSNRNTYLHWYLQKPGQSPQLLIYKVSNRFSGVPDRFSGSGSGTDFTLKISRVEAEDVGVYYCSQNTHVPPTFGQGTKVEIERTVAAPSVFIFPPSDEQLKSGTASVVCLLNNFYPREAKVQWKVDNALQSGNSQESVTEQDSKDSTYSLSSTLTLSKADYEKHKVYACEVTHQGLSSPVTKSFNRGEC
notes: as for B4
- He/Con_2b (FcγRIIb [5]): 106 % of control
- He/Con_1a (FcγRIa): 91.8 % of control

B7: GpH7-A5/GpH7-B3 variant I332_06M/GpL16-k0 (antibody, human IgG1, kappa)
heavy 1: not shown
heavy 2: not shown
light: DIVMTQSPLSLPVTPGEPASISCQASESLVHSNRNTYLHWYLQKPGQSPQLLIYKVSNRFSGVPDRFSGSGSGTDFTLKISRVEAEDVGVYYCSQNTHVPPTFGQGTKVEIERTVAAPSVFIFPPSDEQLKSGTASVVCLLNNFYPREAKVQWKVDNALQSGNSQESVTEQDSKDSTYSLSSTLTLSKADYEKHKVYACEVTHQGLSSPVTKSFNRGEC
notes: as for B4
- He/Con_2b (FcγRIIb [5]): 105 % of control
- He/Con_1a (FcγRIa): 92.3 % of control

Continued, values first:

- He/Con_2aH (FcγRIIa H): 103 % of HeCon Ab
- He/Con_2b (FcγRIIb [1]): 96.7 % of HeCon Ab
B1: GpH7-A5/GpH7-B3 variant T335_01G/GpL16-k0 (antibody, human IgG1, kappa)
heavy 1: not shown
heavy 2: not shown
light: DIVMTQSPLSLPVTPGEPASISCQASESLVHSNRNTYLHWYLQKPGQSPQLLIYKVSNRFSGVPDRFSGSGSGTDFTLKISRVEAEDVGVYYCSQNTHVPPTFGQGTKVEIERTVAAPSVFIFPPSDEQLKSGTASVVCLLNNFYPREAKVQWKVDNALQSGNSQESVTEQDSKDSTYSLSSTLTLSKADYEKHKVYACEVTHQGLSSPVTKSFNRGEC
notes: Heterodimerized anti-glypican-3 IgG1; substitution in only one H chain (the GpH7-B3 chain); also called He Ab

- He/Con_2aH (FcγRIIa H): 103 % of HeCon Ab
- He/Con_2b (FcγRIIb [1]): 99.4 % of HeCon Ab
B3: GpH7-A5/GpH7-B3 variant T335_06M/GpL16-k0 (antibody, human IgG1, kappa)
heavy 1: not shown
heavy 2: not shown
light: DIVMTQSPLSLPVTPGEPASISCQASESLVHSNRNTYLHWYLQKPGQSPQLLIYKVSNRFSGVPDRFSGSGSGTDFTLKISRVEAEDVGVYYCSQNTHVPPTFGQGTKVEIERTVAAPSVFIFPPSDEQLKSGTASVVCLLNNFYPREAKVQWKVDNALQSGNSQESVTEQDSKDSTYSLSSTLTLSKADYEKHKVYACEVTHQGLSSPVTKSFNRGEC
notes: as for B1
